Target: T1, Myc-tagged barley CslF6 (barley (Hordeum vulgare subsp. vulgare))
T1 construct: also called Myc-tagged CslF6 species; not shown: Myc tag
T1 chain: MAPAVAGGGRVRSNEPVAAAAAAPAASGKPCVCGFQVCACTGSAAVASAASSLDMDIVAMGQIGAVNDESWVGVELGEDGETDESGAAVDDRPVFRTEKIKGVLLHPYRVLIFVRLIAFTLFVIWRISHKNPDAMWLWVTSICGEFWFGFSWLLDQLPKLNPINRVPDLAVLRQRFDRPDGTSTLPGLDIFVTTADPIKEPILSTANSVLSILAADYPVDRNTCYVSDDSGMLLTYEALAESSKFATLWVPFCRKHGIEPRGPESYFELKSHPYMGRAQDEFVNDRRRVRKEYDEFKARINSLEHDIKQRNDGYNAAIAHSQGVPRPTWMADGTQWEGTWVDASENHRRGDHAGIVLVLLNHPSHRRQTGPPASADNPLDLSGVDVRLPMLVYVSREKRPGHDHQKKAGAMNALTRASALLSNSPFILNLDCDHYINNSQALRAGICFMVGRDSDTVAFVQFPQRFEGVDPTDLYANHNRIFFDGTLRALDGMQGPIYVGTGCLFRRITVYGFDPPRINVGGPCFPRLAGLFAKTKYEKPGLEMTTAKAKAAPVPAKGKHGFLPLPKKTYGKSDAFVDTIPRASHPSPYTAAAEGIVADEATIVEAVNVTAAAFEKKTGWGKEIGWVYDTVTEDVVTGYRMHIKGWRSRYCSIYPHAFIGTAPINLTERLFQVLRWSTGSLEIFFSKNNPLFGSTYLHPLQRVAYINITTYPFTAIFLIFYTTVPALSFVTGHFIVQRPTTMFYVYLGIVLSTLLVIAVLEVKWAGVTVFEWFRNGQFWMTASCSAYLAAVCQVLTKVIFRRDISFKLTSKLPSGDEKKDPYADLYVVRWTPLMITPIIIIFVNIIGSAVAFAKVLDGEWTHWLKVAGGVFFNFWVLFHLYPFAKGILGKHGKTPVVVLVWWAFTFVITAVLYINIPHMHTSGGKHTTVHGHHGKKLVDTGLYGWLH
Experiment: co-purification of His- and Myc-tagged CslF6

binding result: no binding
B1: barley (Hordeum vulgare) cellulose synthase-like CslF6 with N-terminal 12xHis tag (enzyme)
chain: T1 chain
notes: Expressed in Sf9 insect cells and purified in detergent (LMNG/CHS, then GDN); also called HvCslF6; His-tagged CslF6; not shown: N-terminal 12xHis tag
